The values below come from the supplement of paper PMC7877785.

± gives the uncertainty stated by the source.

The nature of this series: self-splicing fitness, log relative to wild type (ln ratio); higher = more splicing; Tetrahymena group I intron in knt gene, E. coli kanamycin selection, DiMSum; sequences stand for … in CUCUCU…GGAGGGAAAAGUUAUCAGGCAUGCACCUGGUAGCUAGUCUUUAAACCAAUAGAUUGCAUCGGUUUAAAAGGCAAGACCGUCAAAUUGCGGGAAAGGGGUCAACAGCCGUUCAGUACCAAGUCUCAGGGGAAACUUUGAGAUGGCCUUGCAAAGGGUAUGGUAAUAAGCUGACGGACAUGGUCCUAACCACGCAGCCAAGUCCUAAGUCAACAGAUCUUCUGUUGAUAUGGAUGCAGUUCACAGACUAAAUGUCGGUCGGGGAAGAUGUAUUCUUCUCAUAAGAUAUAGUCGGACCUCUCCUUAAUGGGAGCUAGCGGAUGAAGUGAUGCAACACUGGAGCCGCUGGGAACUAAUUUGUAUGCGAAAGUAUAUUGAUUAGUUUUGGAGUACUCGUGGUCG
The method in brief:
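Pooled colonies went to amplicon sequencing on an Illumina HiSeq 2500 after six replicate transformations. The plates were LB agar with 100 μg/mL carbenicillin, 50 μM IPTG and 0.2% rhamnose, with or without 25 μg/mL kanamycin, incubated overnight at 37°C or 30°C. The E. coli BL21(DE3) library had all eight P1ex-region intron nucleotides randomised, the intron placed in the knt kanamycin-resistance gene on pET-22b(+). DiMSum fitness is the error-weighted combination of replicate fold changes, kanamycin against none, normalised to wild type.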

As for UACAAGCAAUAUUACGAUCG, the “self-splicing fitness (ln)” value (30 °C) was determined as 0.00344 ± 0.082 and the “self-splicing fitness (ln)” value (37 °C) stood at 0.983 ± 0.11.
For AUACAGCAAUAUUACGUACG, in that order: -0.772 ± 0.1 and 0.0144 ± 0.12.
For UUCAAGCAAUAUUACGGUUA, in that order: -0.0762 ± 0.097 and 0.272 ± 0.086.
The matching figures for GCAAAGCAAUAUUACGACAG: -3.2 ± 0.18 and -2.68 ± 0.23.
On to CAAUAGCAAUAUUACGGCAG, for which the “self-splicing fitness (ln)” value was -0.535 ± 0.078 (30 °C) and 0.191 ± 0.11 (37 °C).
Take GCAGAGCAAUAUUACGCCUC: the “self-splicing fitness (ln)” value is, setting by setting: (30 °C) -2.46 ± 0.21; (37 °C) -2.38 ± 0.34.
For AGAUAGCAAUAUUACGACAU, in that order: -0.0342 ± 0.013 and 0.0833 ± 0.033.
As to GCUUAGCAAUAUUACGCUAU, the “self-splicing fitness (ln)” value (30 °C) was -2.31 ± 0.16 and the “self-splicing fitness (ln)” value (37 °C) is -1.38 ± 0.16.
UUCUAGCAAUAUUACGUGCA: the “self-splicing fitness (ln)” value runs as follows: (30 °C) -1.23 ± 0.13; (37 °C) -1.59 ± 0.16.
Consider CGUCAGCAAUAUUACGCAUG, for which the “self-splicing fitness (ln)” value (30 °C) is -1.06 ± 0.07 and the “self-splicing fitness (ln)” value (37 °C) is 0.0876 ± 0.082.
The matching figures for CAGCAGCAAUAUUACGAUAC: -3.52 ± 0.33 and -3.45 ± 0.4.
With GCCAAGCAAUAUUACGAAGG, the “self-splicing fitness (ln)” value is, setting by setting: (30 °C) -2.52 ± 0.13; (37 °C) -2.15 ± 0.22.
With CCUCAGCAAUAUUACGAGAC, the “self-splicing fitness (ln)” value (30 °C) is -3.31 ± 0.32 and the “self-splicing fitness (ln)” value (37 °C) was -2.88 ± 0.35.
For UACCAGCAAUAUUACGGGCA, in that order: -0.875 ± 0.054 and 0.469 ± 0.087.
For CGCGAGCAAUAUUACGGCGU, in that order: -4.64 ± 0.34 and -2.9 ± 0.29.
With ACAGAGCAAUAUUACGAGCU, the “self-splicing fitness (ln)” value was -3.43 ± 0.18 (30 °C) and -2.22 ± 0.22 (37 °C).
The matching figures for CACGAGCAAUAUUACGUAUG: -3.54 ± 0.14 and -2.79 ± 0.16.
For GAAAAGCAAUAUUACGAGAC, in that order: -2.59 ± 0.29 and -0.985 ± 0.16.
The matching figures for AUGAAGCAAUAUUACGACAG: 0.129 ± 0.068 and 0.414 ± 0.095.
For the sequence UAGGAGCAAUAUUACGUUGG, under “37 °C”, the “self-splicing fitness (ln)” value is -1.27 ± 0.28.
Regarding AAUUAGCAAUAUUACGAUUA, the “self-splicing fitness (ln)” value (30 °C) was -0.375 ± 0.15 and the “self-splicing fitness (ln)” value (37 °C) was -0.559 ± 0.15.
Turning to AUGGAGCAAUAUUACGGUGA, the “self-splicing fitness (ln)” value (30 °C) is -2.9 ± 0.44.
Take ACUAAGCAAUAUUACGCACU: the “self-splicing fitness (ln)” value is -0.0279 ± 0.082 (30 °C) and -0.417 ± 0.08 (37 °C).
The matching figures for ACAUAGCAAUAUUACGGGAU: -1.88 ± 0.1 and -0.904 ± 0.12.
With GUUAAGCAAUAUUACGUAAC, the “self-splicing fitness (ln)” value (30 °C) was -3.15 ± 0.44.
As for AGAAAGCAAUAUUACGCAUG, the “self-splicing fitness (ln)” value (30 °C) was -1.66 ± 0.1 and the “self-splicing fitness (ln)” value (37 °C) was -0.374 ± 0.1.
For GGUCAGCAAUAUUACGAUCA, in that order: -0.0175 ± 0.14 and 0.178 ± 0.13.
For CAAUAGCAAUAUUACGAUUA, in that order: -1.2 ± 0.12 and -0.352 ± 0.11.
For CUGUAGCAAUAUUACGACAU, in that order: -1.528 ± 0.014 and -0.616 ± 0.033.
Consider UCAGAGCAAUAUUACGUCGG, for which the “self-splicing fitness (ln)” value runs as follows: (30 °C) -1.87 ± 0.2; (37 °C) -0.479 ± 0.16.
In the case of GCUCAGCAAUAUUACGGGUC, the “self-splicing fitness (ln)” value (30 °C) was -3.6 ± 0.22 and the “self-splicing fitness (ln)” value (37 °C) was -2.91 ± 0.23.
The matching figures for AGAAAGCAAUAUUACGUUAU: -2.29 ± 0.099 and -1.58 ± 0.13.
Take CCACAGCAAUAUUACGCUUC: the “self-splicing fitness (ln)” value (30 °C) was -3.25 ± 0.47.
In the case of ACUAAGCAAUAUUACGAUUC, the “self-splicing fitness (ln)” value runs as follows: (30 °C) -2.12 ± 0.091; (37 °C) -0.397 ± 0.11.
As for GAUCAGCAAUAUUACGUAGU, the “self-splicing fitness (ln)” value is, setting by setting: (30 °C) -0.663 ± 0.1; (37 °C) -0.885 ± 0.1.
The matching figures for GGCAAGCAAUAUUACGAAGU: -1.94 ± 0.093 and -1.89 ± 0.12.
The matching figures for UCAGAGCAAUAUUACGUAAG: -2.92 ± 0.14 and -1.82 ± 0.13.
For UGGCAGCAAUAUUACGUUCG, in that order: -0.337 ± 0.068 and 0.283 ± 0.096.
On to GCCAAGCAAUAUUACGUUAC, for which the “self-splicing fitness (ln)” value runs as follows: (30 °C) -2.55 ± 0.12; (37 °C) -2.39 ± 0.18.
